Source: the array DNA melting data of Ke et al.

Assay: melting temperature; melt of duplexes
Details: sodium 0.0675 M; strand 1 µM

Substance | Tm
CGACGTGCTCGATGTGCTG+CAGCACATTAGGCACGTCG ((((((((...((((((((+))))))))...)))))))) | 50.9 °C
CGACGTGCCAGATGTGCTG+CAGCACATAGTGCACGTCG ((((((((...((((((((+))))))))...)))))))) | 45.6 °C
CGACGTGCTTCATGTGCTG+CAGCACATTGCGCACGTCG ((((((((...((((((((+))))))))...)))))))) | 46.5 °C
CGACGTGCGTAATGTGCTG+CAGCACATGCCGCACGTCG (((((((((..((((((((+))))))))..))))))))) | 54.9 °C
CGACGTGCTGCATGTGCTG+CAGCACATAGAGCACGTCG (((((((((..((((((((+))))))))..))))))))) | 52.3 °C
CGACGTGCGAAATGTGCTG+CAGCACATACCGCACGTCG (((((((((..((((((((+))))))))..))))))))) | 53.9 °C
CGACGTGCAGGATGTGCTG+CAGCACATTAGGCACGTCG ((((((((...((((((((+))))))))...)))))))) | 51.3 °C
CGACGTGCAAAATGTGCTG+CAGCACATCATGCACGTCG (((((((((..((((((((+))))))))..))))))))) | 49.9 °C
CGACGTGCTCGATGTGCTG+CAGCACATTTCGCACGTCG ((((((((...((((((((+))))))))...)))))))) | 48.1 °C
CGACGTGCCTGATGTGCTG+CAGCACATCAGGCACGTCG (((((((((((((((((((+))))))))))))))))))) | 65.9 °C
CGACGTGCTAGATGTGCTG+CAGCACATCTAGCACGTCG (((((((((((((((((((+))))))))))))))))))) | 63.6 °C
CGACGTGCCCTATGTGCTG+CAGCACATACCGCACGTCG ((((((((..(((((((((+)))))))))..)))))))) | 47.4 °C
CGACGTGCAGCATGTGCTG+CAGCACATGCAGCACGTCG ((((((((.((((((((((+)))))))))).)))))))) | 60.8 °C
CGACGTGCTAAATGTGCTG+CAGCACATGACGCACGTCG ((((((((...((((((((+))))))))...)))))))) | 50.2 °C
CGACGTGCCCGATGTGCTG+CAGCACATTGAGCACGTCG ((((((((.(.((((((((+)))))))).).)))))))) | 53.6 °C
CGACGTGCACAATGTGCTG+CAGCACATCGCGCACGTCG ((((((((.(.((((((((+)))))))).).)))))))) | 48.5 °C
CGACGTGCCGTATGTGCTG+CAGCACATAAAGCACGTCG ((((((((..(((((((((+)))))))))..)))))))) | 51.5 °C
CGACGTGCGTCATGTGCTG+CAGCACATTTCGCACGTCG (((((((((..((((((((+))))))))..))))))))) | 53.1 °C
CGACGTGCATCATGTGCTG+CAGCACATGGGGCACGTCG ((((((((..(((((((((+)))))))))..)))))))) | 56.5 °C
CGACGTGCATTATGTGCTG+CAGCACATCTCGCACGTCG ((((((((...((((((((+))))))))...)))))))) | 47.1 °C
CGACGTGCCCTATGTGCTG+CAGCACATTCAGCACGTCG ((((((((...((((((((+))))))))...)))))))) | 48.8 °C
CGACGTGCTAGATGTGCTG+CAGCACATGTAGCACGTCG ((((((((((.((((((((+)))))))).)))))))))) | 56.8 °C
CGACGTGCTTGATGTGCTG+CAGCACATGCCGCACGTCG ((((((((...((((((((+))))))))...)))))))) | 47.8 °C
CGACGTGCTGCATGTGCTG+CAGCACATCATGCACGTCG ((((((((...((((((((+))))))))...)))))))) | 52.1 °C

Substance | Tm
CGACGTGCCTCATGTGCTG+CAGCACATGTGGCACGTCG (((((((((.(((((((((+))))))))).))))))))) | 59.8 °C
CGACGTGCATTATGTGCTG+CAGCACATTACGCACGTCG ((((((((.(.((((((((+)))))))).).)))))))) | 49.3 °C
CGACGTGCGGGATGTGCTG+CAGCACATACCGCACGTCG ((((((((((.((((((((+)))))))).)))))))))) | 63.1 °C
CGACGTGCGCGATGTGCTG+CAGCACATAAGGCACGTCG ((((((((...((((((((+))))))))...)))))))) | 50 °C
CGACGTGCCTAATGTGCTG+CAGCACATGAGGCACGTCG ((((((((((.((((((((+)))))))).)))))))))) | 58.5 °C
CGACGTGCATAATGTGCTG+CAGCACATCTTGCACGTCG (((((((((..((((((((+))))))))..))))))))) | 50.8 °C
CGACGTGCCTAATGTGCTG+CAGCACATTATGCACGTCG ((((((((.((((((((((+)))))))))).)))))))) | 54 °C
CGACGTGCCCCATGTGCTG+CAGCACATTACGCACGTCG ((((((((...((((((((+))))))))...)))))))) | 54.6 °C
CGACGTGCGTTATGTGCTG+CAGCACATGTAGCACGTCG ((((((((...((((((((+))))))))...)))))))) | 53.6 °C
CGACGTGCCACATGTGCTG+CAGCACATCGGGCACGTCG (((((((((..((((((((+))))))))..))))))))) | 53.9 °C
CGACGTGCGCAATGTGCTG+CAGCACATTGTGCACGTCG ((((((((.((((((((((+)))))))))).)))))))) | 59.9 °C
CGACGTGCGCTATGTGCTG+CAGCACATTACGCACGTCG (((((((((..((((((((+))))))))..))))))))) | 53.4 °C
CGACGTGCCAGATGTGCTG+CAGCACATAATGCACGTCG ((((((((...((((((((+))))))))...)))))))) | 48.5 °C
CGACGTGCTAAATGTGCTG+CAGCACATGAAGCACGTCG (((((((((..((((((((+))))))))..))))))))) | 54.6 °C
CGACGTGCCCAATGTGCTG+CAGCACATAAAGCACGTCG ((((((((...((((((((+))))))))...)))))))) | 50.1 °C
CGACGTGCGTGATGTGCTG+CAGCACATGTAGCACGTCG ((((((((...((((((((+))))))))...)))))))) | 53.3 °C
CGACGTGCACAATGTGCTG+CAGCACATAGAGCACGTCG ((((((((.(.((((((((+)))))))).).)))))))) | 48.4 °C
CGACGTGCCCGATGTGCTG+CAGCACATCGGGCACGTCG (((((((((((((((((((+))))))))))))))))))) | 68.2 °C
CGACGTGCAGTATGTGCTG+CAGCACATGAGGCACGTCG ((((((((...((((((((+))))))))...)))))))) | 51.4 °C
CGACGTGCCACATGTGCTG+CAGCACATGCAGCACGTCG ((((((((..(((((((((+)))))))))..)))))))) | 53.6 °C
CGACGTGCTTAATGTGCTG+CAGCACATCTTGCACGTCG ((((((((...((((((((+))))))))...)))))))) | 48.9 °C
CGACGTGCGAAATGTGCTG+CAGCACATCCAGCACGTCG ((((((((...((((((((+))))))))...)))))))) | 50.8 °C
CGACGTGCACGATGTGCTG+CAGCACATATCGCACGTCG ((((((((...((((((((+))))))))...)))))))) | 44.2 °C
CGACGTGCTTAATGTGCTG+CAGCACATTATGCACGTCG ((((((((.((((((((((+)))))))))).)))))))) | 56.5 °C

Substance | Tm
CGACGTGCCATATGTGCTG+CAGCACATTAGGCACGTCG (((((((((..((((((((+))))))))..))))))))) | 55.6 °C
CGACGTGCACAATGTGCTG+CAGCACATCTAGCACGTCG ((((((((...((((((((+))))))))...)))))))) | 45.9 °C
CGACGTGCTGTATGTGCTG+CAGCACATCACGCACGTCG ((((((((...((((((((+))))))))...)))))))) | 50.7 °C
CGACGTGCGGTATGTGCTG+CAGCACATGCTGCACGTCG ((((((((.(.((((((((+)))))))).).)))))))) | 56.1 °C
CGACGTGCTGGATGTGCTG+CAGCACATTCCGCACGTCG ((((((((.(.((((((((+)))))))).).)))))))) | 53.9 °C
CGACGTGCCGCATGTGCTG+CAGCACATAACGCACGTCG ((((((((...((((((((+))))))))...)))))))) | 48.3 °C
CGACGTGCCTCATGTGCTG+CAGCACATTAGGCACGTCG ((((((((((.((((((((+)))))))).)))))))))) | 56.3 °C
CGACGTGCGTCATGTGCTG+CAGCACATACTGCACGTCG ((((((((...((((((((+))))))))...)))))))) | 50.9 °C
CGACGTGCGATATGTGCTG+CAGCACATCCTGCACGTCG ((((((((...((((((((+))))))))...)))))))) | 49.5 °C
CGACGTGCGGGATGTGCTG+CAGCACATTTAGCACGTCG ((((((((...((((((((+))))))))...)))))))) | 53.4 °C
CGACGTGCATTATGTGCTG+CAGCACATTTCGCACGTCG ((((((((...((((((((+))))))))...)))))))) | 48.3 °C
CGACGTGCCATATGTGCTG+CAGCACATTCAGCACGTCG ((((((((...((((((((+))))))))...)))))))) | 50.2 °C
CGACGTGCCTGATGTGCTG+CAGCACATCCCGCACGTCG ((((((((..(((((((((+)))))))))..)))))))) | 53 °C
CGACGTGCATAATGTGCTG+CAGCACATGACGCACGTCG ((((((((.(.((((((((+)))))))).).)))))))) | 50.5 °C
CGACGTGCGTCATGTGCTG+CAGCACATCTCGCACGTCG (((((((((..((((((((+))))))))..))))))))) | 52.4 °C
CGACGTGCCTGATGTGCTG+CAGCACATGCAGCACGTCG ((((((((...((((((((+))))))))...)))))))) | 50.4 °C
CGACGTGCAGCATGTGCTG+CAGCACATCATGCACGTCG (((((((((..((((((((+))))))))..))))))))) | 49.5 °C
CGACGTGCCCGATGTGCTG+CAGCACATAAAGCACGTCG ((((((((...((((((((+))))))))...)))))))) | 49.8 °C
CGACGTGCGTTATGTGCTG+CAGCACATAACGCACGTCG (((((((((((((((((((+))))))))))))))))))) | 63.6 °C
CGACGTGCGAAATGTGCTG+CAGCACATCGAGCACGTCG ((((((((...((((((((+))))))))...)))))))) | 55.9 °C
CGACGTGCCCCATGTGCTG+CAGCACATAACGCACGTCG ((((((((...((((((((+))))))))...)))))))) | 45.7 °C
CGACGTGCCATATGTGCTG+CAGCACATCTCGCACGTCG ((((((((.(.((((((((+)))))))).).)))))))) | 47.7 °C
CGACGTGCGCGATGTGCTG+CAGCACATCTTGCACGTCG ((((((((..(((((((((+)))))))))..)))))))) | 53.9 °C
CGACGTGCGGCATGTGCTG+CAGCACATCCCGCACGTCG ((((((((((.((((((((+)))))))).)))))))))) | 58.3 °C
